Experimental data taken from the DeepSol protein solubility set.

Assay: soluble on expression in E. coli; label from the status in PepcDB or PDB records

| Sequence | soluble on expression in E. coli |
| --- | --- |
| MGSDKIHHHHHHMRLRELELFLDLLATKSLTQSAERLGMSQPNASHLLSKLEEKGGSKLFDRSGKRLLPLSSALFLEPRAKEIVRLWREAQEELLDQSSLCGELRIAATHTIGEYLLPEILFEFRQTHPKVHLQARIHNTAECLEALLGGEVEQAFIEGETEDNQGVMKRFLRRDELAVVTSDEGLAARARYIDELFDRPWILREKGSGMRDAFLREVVDVKESFPLFLELDRSEAIKRLIQSHGALGCLSLLSVQREIKEGRLFRVEIIGREFWRHFYEVRREGSLGRLAKVFGEFVSVRLSESD | not soluble |
| MGAAAAMLAAVLLLTPITVPAGYPGAVAPATAACPDAEVVFARGRFEPPGIGTVGNAFVSALRSKVNKNVGVYAVKYPADNQIDVGANDMSAHIQSMANSCPNTRLVPGGYSLGAAVTDVVLAVPTQMWGFTNPLPPGSDEHIAAVALFGNGSQWVGPITNFSPAYNDRTIELCHGDDPVCHPADPNTWEANWPQHLAGAYVSSGMVNQAADFVAGKLQ | not soluble |
| PSLALYVDASGKIKYINEYFLEICRFKSADEATGRSPSELLDTSSRRTLAEKVMETGEGIYNVEKSIKFKALDKPLFTVLSAVPVKDETGTIAGSLMVITDMT | not soluble |
| NRNFSIQMKGTFTYAHNEVLKYDEAAGLRPALSQVGKSLNSIWGYVADGLYIDEADIANNPQSTIGNIAIAPGDVKYVDQPDASGNYDGKITSDDRVVLGYPTIPEIIYGFGPSITWKNWDFSFFFQGQARVSFMMSGFEPFGTQSKNNVLKWISDDHWSKDNQNPNARYPRLTQYNNNNNTASSSYWLRNASFLKLRNAEIGYRFKWARIYVNGSNLLTFSPFKLWDPEMGGGAGMKYPTQRTYNVGIQLTFK | not soluble |
| MGNQMSVPQRVEGQENEPEAETYQDNASALNGVPVVVSTHTVQHLEEVDLGISVKTDNVATSSPETTEISAVADANGKNLGKEAKPEAPAAKSRFFLMLSRPVPGRTGDQAADSSLGSVKLDVSSNKAPANKDPSESWTLPVAAGPGQDTDKTPGHAPAQDKALSAARDPTLLPPETGGAGGEAPSKPKDSSFFDKFFKLDKGQEKVPGDSQQEAKRAEHQDKVDEVPGLSGQSDDVPAGKDIVDGKEKEGQELGTADCSVPGDPEGLETAKDDSQAAAIAENNNSIMSFFKTLVSPNKAETKKDPEDTGAEKSPTTSADLKSDKANFTSQETQGAGKNSKGCNPSGHTQSVTTPEPAKEGTKEKSGPTSLPLGKLFWKKVVCESPVEIIKSKEVESALQTVDLNEGDAAPEPTEAKLKREESKPRTSLMAFLRQMSVKGDGGITHSEEINGKDSSCQTSDSTEKTITPPEPEPTGAPQKGKEGSSKDKKSAAEMNKQKSNKQEAKEPAQCTEQATVDTNSLQNGDKLQKRPEKRQQSLGGFFKGLGPKRMLDAQVQTDPVSIGPVGKSK | soluble |
| MGSDKIHHHHHHMKLRCAIVDDEPLALSLLESYVNKTPFLELAGKYSSAVQAMKELPGNQIDLLFLDIQMPELNGLEFSKMVAPRTRIVFTTAFGQYAIDGYRVNALDYLLKPISYVDFLQAANKALQWFELVQKPEEVDSIFVKSDYKLVQVELKKILYIEGLKDYIKIYTEDAPKPILSLMSMKSMEELLPPARFMRVHRSFIVQKDKIRIIDRGRIVFDKTYIPVSDSYKQTFQTFLDERS | not soluble |
| MALTTRRRALTTLGAALTGAVALPAGTALASQGGHGPRPLWRAHAHNDYEHPRPLLDALDHRFGSVEADIYLVGGQLLVAHDPEDLDPSRTLESLYLDPLAARVRAHHGRVYRRDRGSLQLLIDIKTEGEATYLELDRRLRRYKNLFTSYAHGRVFPGAVTAVVSGDRAARAPMAAQRSRRAFYDGRLTDLGTVAPASFVPLISDNWTLNFTWQGVGTFPAAERRRLRDIVGAAHARGQRVRFWATPDVAGPARDAVWAELLAAGVDHLNTDDLAGIEAFLDAHRDALEHHHHHH | soluble |
| MATAIAITSLLIISGCSSNVETTTVKKETMQSQQKNTETVNTTPQNFYKDITSGKIEHIHGIGYVGNVPWVSIATHSGIKVYQNGKWLETATQLHDYMGFQATKNGFFASGHPEPGANLKNPLGLMKSSDGGNTLEKLAFYGESDFHNLAVGYNTEAIYLYNERPNSKLQQGFYFSTNNGQDWKNSKLKGLSSTVHSFSVHPDQSSVVAVSTKDGVYLSTDYGNTFELFSKSLESTAVTLSNEDVIYAPINTQIVTKKSIATNEETNIQIPLLDSKDAIMYISQNPQNAAEIVFATMKANVFLSTDEGKTWKQLTKEGTLQFN | not soluble |
| VHPLPADHGRSRCNRHPISPLSLIGNASATSGDMSSMTRIAKPLIKSAMAAGLVTASMSLSTAVAHAGPSPNWDAVAQCESGGNWAANTGNGKYGGLQFKPATWAAFGGVGNPAAASREQQIAVANRVLAEQGLDAWPTCGAASGLPIALWSKPAQGIKQIINEIIWAGIQASIPR | not soluble |
| MAVEAVWESARILANSRFAVAFTGAGISAESGIPTFRGKDGLWSRFDPRDLATPEAFNRDPRLVWEWYSWRIERVLAAKPNKAHRLLARLEDSGVLKAVITQNVDGLHRRAGSRRVLELHGNVLRARCTRCGSKLEWREKPSNLPPSCPRCGGVLRPDVVWFGEPLDTSLLEEAFGLARRSDVMIIIGTSGAVDPAGLLPLAAKESGATLINVNPEPNRYSGVADIELRMRAVEFAERLSRAMGIDI | soluble |
| MAHHHHHHMRKPGRKIVYVPDDDAQFLGSMSDPLPPRVSDLLRLKSPSMSDNGHAETGSNGTTGSPGYESIGNELLVSYGGYTLADGSGTLHPPTTRRNGAQLYKSLRKCCRFLRASLSDSMAPKLETDSESSWSCPSFCSSDPTSSSEYSDVSPQRGRRRAAKQANEQTGYNAMIVVQLRRLLHKRGLSTCGIKKVLVARLEQSDMQLSKSKEEGEEQKEQEELDGSAGECTKTERSEDVCSASCGNVSGRVTAAGPTSMLSSLLSFGSRLFRASTGSVSEGGHVSGLKRRRSV | not soluble |
| MSLEFLIYSLPEEVLREEMLGNFSVALKLIDDFLKKDLPLLQRERLIYEKERIERLLEDYPFTEKEAMEKMREMFEGFSEGEFQYLMNEGVLDYIVVEGEKRFERRFFHNLAFVRSEYRERLRKDERSEKARRILHERLERLIKGEDPKRYRIRARITLKLKETSSKHRVWLPFPKESLQIESVKLLRTSHKSYYISPNDVPQRTIYFEGEDSTFFVEFEYIVREWVNHVDPERVSEKVAGFEEFLKEEPPHIVFTPKLRWLTQTVVGSEVNPYLKAKRIYDWITLNVRYSYVKPYALYENITDFVVNNLKGDCGFQALLFITMCRIAGVPARWQSGWYINPIFGSPHDWALFYVEPYGWLPADLSFGGARRDNESFRSFYFGNLDGFRMVANDGFMKDFDPKTRFVRSDPTDNQVGEAESEEKRLPFESTIEVISFEEVEGGSHHHHHH | soluble |
| MFSRRTTPSPSITTASSSTFSISNLTNNNATSTSDLPASAISNIVPQIPPTPRRVPPKIGLLRHLSGFLESKKDLMNDWEIGGTQNKWVCPSDRHLHLRAQLKSGWSVRTATARSPTNSKAQTGSITAAEQEHIQKVLAKAEESKSKEQQRIGKMVDRLEKMRRRATGNGVTHCLLCHTEFGLLASKSYAAMCVDCRKYVCQRNCGVETTDVNQTTGKVETVFLCKICSEAREVLWKKSGAWFYKEMPEFQRPDDRLPYYVPVTTNGTLPNASSAATPLSGTPGGAGPQPMTMPSTSSCQMTTPKWASPGVCNSPGLQMNGGPTSPLPNGTRRNTGHGGIEFPSSSRPSICSVLQAIEPLDRSKSPRPRIQPRWVNEKVMSSMSVDDEEKAASSSDGESFVQSGVPRRALNNKTPVGSTSATTSPAPPPTSTTPTSRREANMERFSRHTHAHANRLYSTDDDDDSSPESRPSTRSTSPRHSLATPSSYAHDTCHDTSLPDADTRSIDSGVVQSDHSNPQQSGLTCSSSSLTPLQQQASHDHHSGGGTPRRISNPDRTTSRVAQSASGTSLVTPPPPISSRTSPDNCNSSPLNVMEHKSSSASTASSGGNRRVGSAEPVLNNHHAMHNNQNHNDINKKLISQTSRAESPLAASSSFLSSPDDDTKQKNRRRDGVGRVNSLQLRTSLDDVAPPVAPISKMNGHIVSSEPTSSTTSNQNHTSVPIPTVPVVPEEEEEKAITASTESASEPGSLGSITLTLTYHSADKKLKMHLIRAKNLKAMDSNGFSDPYVKFHLLPGNTKATKLTSKTIEKTLNPEWNEEMSYYGITEDDKEKKILRVTVLDRDRIGSDFLGETRIALKKLNDNEMKKFNLYLESALPVPQQTKEEENEDRGKINVGLQYNIQQGSLFININRCVELVGMDSTGFSDPYCKVSLTPITSKAHRAKTSTKKRTLNPEWNEQLQFVVPFKDLPKKTLQIGVYDHDLGKHDDYIGGILLSTSAKDERGRQWIKCIENPGTLVEAWHRLELDS | not soluble |
| MSVLQKIADIEAEMARTQKNKATNAHLGILKAKLAKLRRDLITPKGGGGGPGEGFDVAKTGDARIGFVGFPSVGKSTLLCNLAGVFSEVAAYEFTTLTTVPGVIRYKGAKIQLLDLPGIIEGAKDGKGRGKQVIAVARTCSLILMVLDVMKPLQHKKLLEYELEGFGIRLNKQPPNIGYKRKEKGGINLTMLVPQSELDLDLVKSILAEYRIHNADITLRYDATSEDLIDVIEGNRIYIPCIYVLNKIDQISIEELDIIYRIPHTVPISAHHKWNFDDLLEKVWEYLNLIRIYTKPKGQLPDYSQPIVLNAERKSIEDLCTKIHKSLQKDFKCALVWGASAKHNPQRVGRDHVLIDEDVVQVIKKV | not soluble |
| MGRFLLVDKKAPNYENLIDKEMNEIYERVKKIDPNQNEFLQAFHEILYSLKPLFMEDPKYLPIIEMLSEPERLVQFRVCWIDDNGIQRKNRGFRVQFNSTLGIYKGGLRFHPSVNLSIVKFLGFEQIFKNSLTGLSMGGAKGGSDFDPKGKSDNEIMKFCQSFMNELYRHIGPRTDVPAGDIGVGGREIGYLFGQYKKIANSFNGTLTGKNEKWGGSILRTEATGYGLVYFVLEVLKSLNIQMDKQTAIVSGSGNVALYCVQKLLQLNVKVLTMSDSNGYIYEPNGFTNDDLNFIIELKEVRKGRIEEYLKHSSTAKYFPNEKPWNVKCTLAFPCATQNEIDLDDAKLLHKNGCILVGEGANMPSTIEAINYLKENKIILCPSKAANAGGVAISGLEMSQNFQFAKWTKETVDEKLKEIMKNIFISSSESALKYANNKYDLQVGANISGFLKVADSYIQQGL | soluble |
| MGHHHHHHSHMGFGSDLKNSHEAVLKLQDWELRLLETVKKFMALRIKSDKEYASTLQNLCNQVDKESTVQMNYVSNVSKSWLLMIQQTEQLSRIMKTHAEDLNSGPLHRLTMMIKDKQQVKKSYIGVHQQIEAEMIKVTKTELEKLKCSYRQLIKEMNSAKEKYKEALAKG | soluble |
| MYNSMDEVPVSLHASIDTGDGEFDMNALISNNAHILFIVLDSLRYDIALQEQTAGNTPNLNHYGQWTKCEAAGNFTWPSHHAMFSGFMPKPIDDTVNQTMLFFPKDIGLGRKGPKNAFAFDDATWIKSLENKGYQTICIGGVSFFNNRSGMGKVFPSMFKESYWHPRFACTVKESMDNQIHYIQKIMAERAGSQPVMMYINIDTIHYPNHFYVEGAAPGDTVETHAAALRYIDARIDGLLNIFRQTGGATFVIVCSDHGTCYGEDGKYFHSFNHPIVNTVPYMHFLLSGNHLEHHHHHH | soluble |
| MAKRIKNTTPKQDGFRMPGEFEKQKQIWMLWPWRNDNWRLGAKPAQKAFLEVAEAISEFEPVSLCVPPLQYENALARVSELGSHNIRIIEMTNDDAWIRDCGPTFLVNDKGDLRAVDWEFNAWGGLVDGLYFPWDQDALVARKVCEIEGVDSYKTKDFVLEGGSIHVDGEGTVLVTEMCLLHPSRNPHLTKEDIEDKLKDYLNCVKVLWVKDGIDPYETNGHIDDVACFIRPGEVACIYTDDKEHPFYQEAKAAYDFLSQQTDAKGRPLKVHKMCVTKEPCYLQEAATIDYVEGSIPREEGEMAIASYLNFLIVNGGIILPQYGDENDQLAKQQVQEMFPDRKVVGVRTEEIAYGGGNIHCITQQQPATLEHHHHHH | soluble |
